# Columns and labels:
# [1] = target: SNAP-tagged wild-type human PTH1R (human) (UniProt Q03431); test: AlphaScreen or HTRF; crude membrane fractions (0.2–1 µg per well) of HEK293T cells with SNAP-Lumi4-Tb-labelled PTH1R, without mini-Gs; labeled M-PTH(1–14) tracer with unlabeled M-PTH(1–14); 4 h on ice
# [2] = target: SNAP-tagged wild-type human PTH1R (human) (UniProt Q03431); test: AlphaScreen or HTRF; binding of 40 nM M-PTH(1–14) to membrane fractions supplemented with increasing concentrations of mini-Gs; data relative to PTH1R without mini-Gs; EC50 of mini-Gs read through ligand occupancy, apparent
substance,measurement,setting,value
"Human [Ac5c^1, Aib^3, Q^10, Har^11, A^12, W^14]PTH(1–14) (peptide)","fold increase in affinity, membrane fractions against whole cells",[1],5 fold
M-PTH(1–14) labeled at K^13 with HiLyte dye 647 (peptide),fold increase of fractional binding with increasing mini-Gs,[2],< 2 fold
Mini-Gs 393,EC50,[2],1390 nM

# Source: PMC10063554
